From the supplement of paper PMC11246515
± gives the standard deviation of the averaged measurements.

Assay: total protein half-life in vivo (active degradation + dilution); higher = more stable protein
[1] = wild type E. coli NCM3722, growth: C-lim chemostat, doubling time 12 h
[2] = E. coli NCM3722 delta-clpP delta-lon delta-hslV, growth: N-lim chemostat, doubling time 6 h
[3] = E. coli NCM3722 delta-clpP, growth: N-lim chemostat, doubling time 6 h
[4] = E. coli NCM3722 delta-lon, growth: N-lim chemostat, doubling time 6 h
[5] = E. coli NCM3722 delta-smpB, growth: N-lim chemostat, doubling time 6 h
[6] = wild type E. coli NCM3722, growth: C-lim chemostat, doubling time 3 h
[7] = wild type E. coli NCM3722, growth: C-lim chemostat, doubling time 6 h
[8] = wild type E. coli NCM3722, growth: N-lim chemostat, doubling time 6 h
[9] = wild type E. coli NCM3722, growth: N-lim chemostat, doubling time 12 h
[10] = wild type E. coli NCM3722, growth: P-lim chemostat, doubling time 6 h
[11] = wild type E. coli NCM3722, growth: P-lim chemostat, doubling time 12 h
[12] = E. coli NCM3722 delta-hslV, growth: N-lim chemostat, doubling time 6 h

| Sequence | total protein half-life in vivo [1] [h] | total protein half-life in vivo [2] [h] | total protein half-life in vivo [3] [h] | total protein half-life in vivo [4] [h] | total protein half-life in vivo [5] [h] | total protein half-life in vivo [6] [h] | total protein half-life in vivo [7] [h] | total protein half-life in vivo [8] [h] | total protein half-life in vivo [9] [h] | total protein half-life in vivo [10] [h] | total protein half-life in vivo [11] [h] | total protein half-life in vivo [12] [h] |
| --- | --- | --- | --- | --- | --- | --- | --- | --- | --- | --- | --- | --- |
| MIDYKKNLLFILVFISGFILFTVYSYTAEKMIYNETCTANWVIFNDQGRANLTIDFMYNKKNKTGTVALSGTWQQGNRESKSIRRNIEYTWIENYDTAHLTSKKVNKFEIMDQVDDDRLAQLIPDFYVFPEKSVSYNILKQGKHAFILSIGNRAIMHCAR | > 16 | – | – | – | – | – | – | – | – | – | – | – |
| MEFSPPLQRATLIQRYKRFLADVITPDGRELTLHCPNTGAMTGCATPGDTVWYSTSDNTKRKYPHTWELTQSQSGAFICVNTLWANRLTKEAILNESISELSGYSSLKSEVKYGAERSRIDFMLQADSRPDCYIEVKSVTLAENEQGYFPDAVTERGQKHLRELMSVAAEGQRAVIFFAVLHSAITRFSPARHIDEKYAQLLSEAQQRGVEILAYKAEISAEGMALKKSLPVTL [P0A823] | 11.2 ± 0.24 | 6.44 ± 0.13 | 5.88 ± 0.28 | 5.97 ± 0.26 | 5.41 ± 0.73 | 3.39 ± 0.092 | 6.23 ± 0.38 | 5.71 ± 0.11 | 10.2 ± 0.88 | 5.67 ± 0.24 | 13.5 ± 1.4 | – |
| MTHKATEILTGKVMQKSVLITGCSSGIGLESALELKRQGFHVLAGCRKPDDVERMNSMGFTGVLIDLDSPESVDRAADEVIALTDNCLYGIFNNAGFGMYGPLSTISRAQMEQQFSANFFGAHQLTMRLLPAMLPHGEGRIVMTSSVMGLISTPGRGAYAASKYALEAWSDALRMELRHSGIKVSLIEPGPIRTRFTDNVNQTQSDKPVENPGIAARFTLGPEAVVDKVRHAFISEKPKMRYPVTLVTWAVMVLKRLLPGRVMDKILQG [P0AFP4] | 13.6 ± 1.8 | 6.09 ± 0.25 | 6.01 ± 0.54 | 6.02 ± 0.67 | 5.568 ± 0.03 | 3.07 ± 0.11 | 6.19 ± 0.11 | 6.01 ± 0.4 | 11.9 ± 0.34 | 6.027 ± 0.025 | 10.4 ± 1.3 | 5.32 ± 1.6 |
| MQVSRRQFFKICAGGMAGTTAAALGFAPSVALAETRQYKLLRTRETRNTCTYCSVGCGLLMYSLGDGAKNAKASIFHIEGDPDHPVNRGALCPKGAGLVDFIHSESRLKFPEYRAPGSDKWQQISWEEAFDRIAKLMKEDRDANYIAQNAEGVTVNRWLSTGMLCASASSNETGYLTQKFSRALGMLAVDNQARVUHGPTVASLAPTFGRGAMTNHWVDIKNANLVVVMGGNAAEAHPVGFRWAMEAKIHNGAKLIVIDPRFTRTAAVADYYAPIRSGTDIAFLSGVLLYLLNNEKFNREYTEAYTNASLIVREDYGFEDGLFTGYDAEKRKYDKSSWTYELDENGFAKRDTTLQHPRCVWNLLKQHVSRYTPDVVENICGTPKDAFLKVCEYIAETSAHDKTASFLYALGWTQHSVGAQNIRTMAMIQLLLGNMGMAGGGVNALRGHSNIQGLTDLGLLSQSLPGYMTLPSEKQTDLQTYLTANTPKPLLEGQVNYWGNYPKFFVSMMKAFFGDKATAENSWGFDWLPKWDKGYDVLQYFEMMKEGKVNGYICQGFNPVASFPNKNKVIGCLSKLKFLVTIDPLNTETSNFWQNHGELNEVDSSKIQTEVFRLPSTCFAEENGSIVNSGRWLQWHWKGADAPGIALTDGEILSGIFLRLRKMYAEQGGANPDQVLNMTWNYAIPHEPSSEEVAMESNGKALADITDPATGAVIVKKGQQLSSFAQLRDDGTTSCGCWIFAGSWTPEGNQMARRDNADPSGLGNTLGWAWAWPLNRRILYNRASADPQGNPWDPKRQLLKWDGTKWTGWDIPDYSAAPPGSGVGPFIMQQEGMGRLFALDKMAEGPFPEHYEPFETPLGTNPLHPNVISNPAARIFKDDAEALGKADKFPYVGTTYRLTEHFHYWTKHALLNAILQPEQFVEIGESLANKLGIAQGDTVKVSSNRGYIKAKAVVTKRIRTLKANGKDIDTIGIPIHWGYEGVAKKGFIANTLTPFVGDANTQTPEFKSFLVNVEKV | 11.4 ± 0.86 | 5.155 ± 0.0061 | 4.77 ± 0.55 | 5.502 ± 0.033 | 4.72 | > 4 | 5.8 | 5.89 | 10.4 ± 0.35 | 4.79 ± 0.5 | 8.459 ± 0.046 | 6.6 |
| MRLFNWRRQAVLNAMPLVKPDQVRTPWHEFWRRFRRQHMAMTAALFVILLIVVAIFARWIAPYDAENYFDYDNLNNGPSLQHWFGVDSLGRDIFSRVLVGAQISLAAGVFAVFIGAAIGTLLGLLAGYYEGWWDRLIMRICDVLFAFPGILLAIAVVAVLGSGIANVIIAVAIFSIPAFARLVRGNTLVLKQQTFIESARSIGASDMTVLLRHILPGTVSSIVVFFTMRIGTSIISAASLSFLGLGAQPPTPEWGAMLNEARADMVIAPHVAVFPALAIFLTVLAFNLLGDGLRDALDPKIKG | 13.6 | – | 6.63 | – | 6.59 ± 0.99 | 3.08 ± 0.21 | 6.44 ± 0.14 | 6.817 ± 0.047 | 12.4 ± 1.2 | 6.55 ± 0.52 | – | 6.48 ± 0.35 |
| MVAPIPAKRGRKPAVATAPATGQVQSLTRGLKLLEWIAESNGSVALTELAQQAGLPNSTTHRLLTTMQQQGFVRQVGELGHWAIGAHAFMVGSSFLQSRNLLAIVHPILRNLMEESGETVNMAVLDQSDHEAIIIDQVQCTHLMRMSAPIGGKLPMHASGAGKAFLAQLSEEQVTKLLHRKGLHAYTHATLVSPVHLKEDLAQTRKRGYSFDDEEHALGLRCLAACIFDEHREPFAAISISGPISRITDDRVTEFGAMVIKAAKEVTLAYGGMR | 9.91 ± 0.97 | 5.87 ± 0.33 | 5.93 ± 0.11 | 5.45 ± 0.43 | 5.348 ± 0.028 | 2.89 ± 0.17 | 5.43 ± 0.46 | 5.51 ± 0.18 | 9.96 ± 1.1 | 4.91 ± 0.12 | 9.56 ± 0.21 | 5.33 ± 0.38 |
| MIYIGLPQWSHPKWVRLGITSLEEYARHFNCVEGNTTLYALPKPEVVLRWREQTTDDFRFCFKFPATISHQAALRHCDDLVTEFLTRMSPLAPRIGQYWLQLPATFGPRELPALWHFLDSLPGEFNYGVEVRHPQFFAKGEEEQTLNRGLHQRGVNRVILDSRPVHAARPHSEAIRDAQRKKPKVPVHAVLTATNPLIRFIGSDDMTQNRELFQVWLQKLAQWHQTTTPYLFLHTPDIAQAPELVHTLWEDLRKTLPEIGAVPAIPQQSSLF | 8.14 ± 0.79 | 4.97 ± 2.1 | 3.55 ± 0.26 | 3.25 ± 0.55 | 2.97 ± 0.13 | – | 4.28 | 3.16 ± 0.033 | 5.52 | 5.33 ± 0.11 | 11.5 ± 0.46 | 2.76 ± 0.11 |
